Experimental data as given in patent US8936806B2, “Periostin induces proliferation of cardiomyocytes and promotes cardiac regeneration” (Children's Medical Center Corporation, priority 2007, dated 2015).
Values joined by “and” are separate entries in the source; they are usually repeats but may differ in a detail not shown here. Equal values may be shown once. “Also recorded” adds a separate entry of the source.

Assays:
[1] = test system: Adult male Sprague-Dawley rats; assay: Rat model of myocardial infarction: analysis of myocardial regeneration (histology, immunofluorescence); type: in vivo
Protocol: Horizontal cryosections of 14 μm thickness spaced at 1 mm intervals were analyzed. To determine infarct size, Masson's Trichrome-stained sections were analyzed at 1× magnification. The infarct border zone was defined as myocardial tissue within 0.5 mm of the fibrous scar tissue. Fibrosis and cardiomyocyte cross-sectional area were determined after staining with Masson's Trichrome at 10× and 40× magnification, respectively, and quantified using the Metamorph software package. BrdU-positive cardiac fibroblast nuclei were determined at 5 cross-sections per heart at the level of the myocardial infarction. Cardiomyocyte nuclei were counted using the optical dissector method (Howard, C. V. & Reed, M. Unbiased Stereology: Three-Dimensional Measurement In Microscopy, (BIOS Scientific Publishers, Oxford, 2005)) on troponin T and DAPI-stained sections in 32-60 random sample volumes of […] per heart. BrdU-positive cardiomyocyte nuclei were quantified on 16-20 sections per heart. […] Adult male Sprague-Dawley rats (300 gm, Charles River Laboratories) underwent experimental myocardial infarction as described (del Monte, F. et al. Abrogation of ventricular arrhythmias in a model of ischemia and reperfusion by targeting myocardial calcium cycling. Proc Natl Acad Sci USA 101, 5622-7 (2004)). The survival rate was 67%. Gelfoam loaded with 100 μg of recombinant periostin or with buffer were applied over the myocardial infarction at the time of surgery. […] Echocardiography and hemodynamic catheterization were performed as described (Prunier, F. et al. Am J Physiol Heart Circ Physiol (2006)). Horizontal cryosections of 14 μm thickness spaced at 1 mm intervals were analyzed. Masson's Trichrome-stained sections were analyzed at 10× magnification to determine infarct size (Pasumarthi, K. B., et al. Circ Res 96, 110-8 (2005)), defined as [coronal infarct perimeter (epicardial+endocardial)/total coronal perimeter (epicardial+endocardial)]×100 and thinning index (Engel, F. B., et al. Proc Natl Acad Sci USA 103, 15546-51 (2006)), defined as minimal infarct wall thickness/maximal septal wall thickness. The infarct border zone was defined as myocardial tissue within 0.5 mm of the fibrous scar tissue. Fibrosis was determined on 10× images of Masson's Trichrome stainings and quantified using the Metamorph software package (Molecular Devices Corp.). Cardiomyocyte cross-sectional area was determined after staining with Masson's Trichrome at 40× magnification and quantified using the Metamorph software package. BrdU-positive cardiac fibroblast nuclei were determined at 5 cross-sections per heart at the level of the myocardial infarction. Cardiomyocyte nuclei were counted on troponin T and DAPI-stained sections in 32-60 random sample volumes of 84,500 μm^3 per heart. BrdU-positive cardiomyocyte nuclei were quantified on 16-20 sections per heart. Capillaries and stem cells were detected with antibodies against von Willebrand factor (vWF) and c-kit, respectively, and quantified at 5 cross-sections per heart at the level of the myocardial infarction.

[2] = test system: primary adult rat ventricular cardiomyocytes; assay: DNA synthesis (BrdU uptake, immunofluorescence) in primary adult rat ventricular cardiomyocytes; type: cell-based
Text: Primary neonatal rat ventricular cardiomyocytes were isolated using the Neomyts kit (Cellutron, Highland Park, N.J.), seeded at a density of 10^5 cells/cm^2 onto gelatin-coated cover slips, stimulated for 3 days, and labeled with BrdU for the terminal 2 days. Primary adult ventricular cardiomyocytes were isolated from male (300 gm) Wistar rats (Charles River Laboratories) and maintained as described (Engel, F. B. et al. p38 MAP kinase inhibition enables proliferation of adult mammalian cardiomyocytes. Genes Dev 19, 1175-87 (2005)). Adult cardiomyocytes were stimulated daily for 9 days and labeled with 30 μM BrdU for the terminal 3 days. Cardiomyocytes were stimulated with periostin (500 ng/mL) and FGF (100 ng/mL). […] The vehicle used to dissolve factors or chemicals was added to unstimulated samples, which were then processed together with the test samples. DNA-synthesis was analyzed by visualization of BrdU uptake and cytokinesis was determined by detection of the cleavage furrow and the midbody with an antibody against aurora B kinase as described (Engel, F. B. et al. p38 MAP kinase inhibition enables proliferation of adult mammalian cardiomyocytes. Genes Dev 19, 1175-87 (2005)). Signals were visualized with secondary antibodies conjugated to Alexa 488, Alexa 546, Alexa 594, and Alexa 647 (Invitrogen). […] For image acquisition, the value for γ was set at 1 and the lookup table settings were linear. Primary adult rat ventricular cardiomyocytes were grown on gridded cover slips (Electron Microscopy Services, Ft. Washington, Pa.) and imaged in phase contrast at 10× magnification. Cardiomyocytes were transduced with an adenovirus leading to nuclear expression of histone2B-GFP (Shi, Q. & King, R. W. Nature 437, 1038-42 (2005)) under control of the chicken troponin T promoter ([…]. Am J Physiol Cell Physiol 286, […]-64 (2004)). Nuclei were visualized at 10× magnification with a mercury-arc lamp dimmed to 1.5% with a neutral density filter. […] Images of BrdU-positive cardiomyocytes were matched with the corresponding images from before stimulation. For quantification, differentiated cardiomyocytes were defined as striated rod-shaped structures with length/width ratio>1.5.

[3] = 1 week, infarct and border zone
[4] = H2B-GFP, after 6 days, 3 days BrdU labeling, stimulus not named in block (periostin section)

B1: periostin: Recombinant periostin, purified from HEK293 cells expressing the full-length human cDNA; secreted protein of 834 amino acids (Seq ID. No. 1) (protein, listed as Homo sapiens)
chain: MIPFLPMFSLLLLLIVNPINANNHYDKILAHSRIRGRDQGPNVCALQQILGTKKKYFSTCKNWYKKSICGQKTTVLYECCPGYMRMEGMKGCPAVLPIDHVYGTLGIVGATTTQRYSDASKLREEIEGKGSFTYFAPSNEAWDNLDSDIRRGLESNVNVELLNALHSHMINKRMLTKDLKNGMIIPSMYNNLGLFINHYPNGVVTVNCARIIHGNQIATNGVVHVIDRVLTQIGTSIQDFIEAEDDLSSFRAAAITSDILEALGRDGHFTLFAPTNEAFEKLPRGVLERFMGDKVASEALMKYHILNTLQCSESIMGGAVFETLEGNTIEIGCDGDSITVNGIKMVNKKDIVTNNGVIHLIDQVLIPDSAKQVIELAGKQQTTFTDLVAQLGLASALRPDGEYTLLAPVNNAFSDDTLSMVQRLLKLILQNHILKVKVGLNELYNGQILETIGGKQLRVFVYRTAVCIENSCMEKGSKQGRNGAIHIFREIIKPAEKSLHEKLKQDKRFSTFLSLLEAADLKELLTQPGDWTLFVPTNDAFKGMTSEEKEILIRDKNALQNIILYHLTPGVFIGKGFEPGVTNILKTTQGSKIFLKEVNDTLLVNELKSKESDIMTTNGVIHVVDKLLYPADTPVGNDQLLEILNKLIKYIQIKFVRGSTFKEIPVTVYTTKIITKVVEPKIKVIEGSLQPIIKTEGPTLTKVKIEGEPEFRLIKEGETITEVIHGEPIIKKYTKIIDGVPVEITEKETREERIITGPEIKYTRISTGGGETEETLKKLLQEEVTKVTKFIEGGDGHLFEDEEIKRLLQGDTPVRKLQANKKVQGSRRRLREGRSQ
[1]; 1 and 12 weeks
  number of c-kit-positive cells in infarct and border zone vs control: did not differ
[1]; 1 week
  mitosis (H3P), of cardiomyocyte nuclei: 0.1±0.01%
[1]; 1 week after MI
  infarct size vs control: same infarct size
  number of BrdU-positive cardiac fibroblasts: decreased
  number of cardiomyocyte nuclei vs control: same number of nuclei
  proportion of cycling cardiomyocytes vs proportion of apoptotic cardiomyocytes: five-fold higher
[1]; [3]
  arteriolar density vs control: did not differ
  capillary density vs control: did not differ
[1]; 12 weeks
  mitosis (H3P), of cardiomyocyte nuclei: 0.2±0.5%
[1]; 12 weeks after MI
  fibrotic tissue: significantly decreased
  heart weight vs buffer-treated rats: similar
  increase in arteriolar density compared with control hearts: 1.5 fold
  increase in capillary density compared with control hearts: 4 fold
  infarct size smaller compared with control hearts: 50%
  left ventricular free wall thickness vs control: thicker
  more cardiomyocyte nuclei than control hearts: 6.2×10^6
  proportion of cycling cardiomyocytes vs proportion of apoptotic cardiomyocytes: 100 fold
  scar volume vs control: smaller scar volume
  septum thickness vs control: thinner
  thinning index: improved thinning index
[1]; FIG. 11A, time not given, legend b80: one week
  increased capillary density compared with control animals: 4 fold
[1]; FIG. 11B
  number of stem cells (c-kit) vs buffer treated hearts: similar
[1]; after 12 weeks
  calculated new cardiomyocyte nuclei from BrdU rate: 7.2×10^6 per heart
[1]; after MI
  cross-sectional cardiomyocyte area vs control: smaller
  increase of DNA synthesis compared with buffer-treated animals: 10 fold
[1]; after MI (FIG. 9i)
  left ventricular cardiomyocyte nuclei: 18.8 million
[1]; after MI, 1 and 12 weeks
  cardiomyocyte apoptosis vs control: without changing the rate of apoptosis; also recorded: without affecting apoptosis; also recorded: similar
[1]; after MI, 3 BrdU injections
  DNA synthesis, cardiomyocytes per heart: 5,268±402 per heart
[1]; infarct and border zone, 1 week
  BrdU uptake, of cardiomyocytes: 0.6±0.07%
[1]; infarct and border zone, 12 weeks
  BrdU uptake, of cardiomyocytes: 1±0.3%
[1]; over 12 weeks
  calculated cardiomyocyte nuclei generated from rate of mitosis: 5.5×10^6
[1]; periostin-treated hearts, n=6
  cardiomyocyte mitoses (metaphase chromosomes): 4,737±770
[1]; rat, in vivo
  cell-cycle reentry, of all cardiomyocytes in the infarct border zone: 0.6-1%
  rate of cardiomyocytes entering the cell cycle: 3,727 per hour
[1]; single injection of BrdU, labeling for 6.4 h, n=3
  cell-cycle reentry of differentiated cardiomyocytes: 23,852±1,709 per heart
[1]; three injections of BrdU
  BrdU-labeled cardiomyocytes / cell cycle re-entry in the infarct border zone: 1.4% and 1.4±0.5%
[2]; 9 days periostin 500 ng/mL, vs non-stimulated
  increase of cardiomyocyte DNA synthesis: 14 fold
[2]; 9 days stimulation (periostin 500 ng/mL, FGF 100 ng/mL), BrdU terminal 3 days
  cardiomyocyte DNA synthesis: 1.1±0.2%
[2]; [4]
  BrdU-positive binucleated cardiomyocytes: 0.2±0.03%
  BrdU-positive mononucleated cardiomyocytes: 1.7±0.3%
[2]; time-course of stimulation
  start of periostin-induced cardiomyocyte DNA synthesis: 3 days
